{
  "source": "patent US20020147133A1",
  "key": {"[1]": {"biological_target": "phosphotyrosine peptide NH2-pYEEI-COOH", "assay": "radioactive SH2 domain on an increased amount of pYEEI Affi-Gel beads"}, "[2]": {"biological_target": "phosphotyrosine peptide NH2-pYEEI-COOH", "assay": "radioactive SH2 domain (200 nM) on pYEEI Affi-Gel beads, scintillation counting"}, "[3]": {"biological_target": "SH2 domain of the tyrosine kinase Fyn (UniProt P06241)", "sequence (P06241 143-248)": "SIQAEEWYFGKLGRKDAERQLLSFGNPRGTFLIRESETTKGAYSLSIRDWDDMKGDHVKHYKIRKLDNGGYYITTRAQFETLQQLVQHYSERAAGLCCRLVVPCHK", "assay": "ratio of IC50 values, competition with pYEEI beads"}, "[4]": {"biological_target": "SH2 domain of the tyrosine kinase Fyn (UniProt P06241)", "assay": "ratio of Kd values, isothermal titration calorimetry"}, "[5]": {"biological_target": "SH2 domain of the tyrosine kinase Fyn (UniProt P06241)", "assay": "competition with pYEEI beads for radioactive Fyn SH2 domain (200 nM), FKBP52 at 4.5 uM"}, "[6]": {"biological_target": "SH2 domain of the tyrosine kinase Fyn (UniProt P06241)", "assay": "isothermal titration calorimetry, Fyn SH2 domain binding to the FKpYEEI-FKBP52 complex"}, "[7]": {"biological_target": "SH2 domain of the tyrosine kinase Fyn (UniProt P06241)", "assay": "competition with pYEEI beads for radioactive Fyn SH2 domain (200 nM), FKBP12 at 20 uM"}, "[8]": {"biological_target": "SH2 domain of the tyrosine kinase Fyn (UniProt P06241)", "assay": "isothermal titration calorimetry, Fyn SH2 domain binding to the SLFpYEEI-FKBP12 complex"}, "[9]": {"biological_target": "SH2 domain of the tyrosine kinase Fyn (UniProt P06241)", "assay": "isothermal titration calorimetry, 25 C"}, "[10]": {"biological_target": "recombinant FKBP12 (UniProt P62942)", "sequence (P62942 whole entry)": "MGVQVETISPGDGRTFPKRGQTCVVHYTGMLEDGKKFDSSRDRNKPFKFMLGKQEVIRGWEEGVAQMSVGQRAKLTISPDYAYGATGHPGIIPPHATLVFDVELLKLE", "assay": "isothermal titration calorimetry, 25 C"}, "[11]": {"biological_target": "recombinant FKBP52 with a tag of six histidine residues at its N-terminus (UniProt Q02790)", "sequence (Q02790 whole entry)": "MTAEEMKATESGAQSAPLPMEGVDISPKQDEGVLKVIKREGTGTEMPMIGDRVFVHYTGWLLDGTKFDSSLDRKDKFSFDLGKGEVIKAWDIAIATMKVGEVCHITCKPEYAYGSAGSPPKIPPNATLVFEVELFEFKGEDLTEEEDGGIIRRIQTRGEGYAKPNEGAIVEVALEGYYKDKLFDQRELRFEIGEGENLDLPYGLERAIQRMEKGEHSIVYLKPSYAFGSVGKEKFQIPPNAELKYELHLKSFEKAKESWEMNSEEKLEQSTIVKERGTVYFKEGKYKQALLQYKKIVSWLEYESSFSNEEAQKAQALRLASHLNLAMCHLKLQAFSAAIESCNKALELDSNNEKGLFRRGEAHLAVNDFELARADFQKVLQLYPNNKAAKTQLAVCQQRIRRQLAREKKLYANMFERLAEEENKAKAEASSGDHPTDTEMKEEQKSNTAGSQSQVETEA", "assay": "isothermal titration calorimetry, 25 C"}, "[12]": {"biological_target": "SH2 domain of the tyrosine kinase Fyn (UniProt P06241)", "assay": "competition with pYEEI beads for radioactive Fyn SH2 domain (200 nM), no FKBP12"}, "[13]": {"biological_target": "SH2 domain of the tyrosine kinase Fyn (UniProt P06241)", "assay": "competition with pYEEI beads for radioactive Fyn SH2 domain (200 nM), no FKBP52"}, "[14]": {"biological_target": "SH2 domain of the tyrosine kinase Fyn (UniProt P06241)", "assay": "competition of free pYEEI with pYEEI beads for radioactive Fyn SH2 domain (200 nM)"}},
  "data": [
    {"substance": "SH2 domain of the tyrosine kinase Lck (from UniProt P06239 120-226)", "values": [
      {"measurement": "percent of SH2 domain bound to the beads", "setting": "[1]", "result": 25, "unit": "%"},
      {"measurement": "percent of SH2 domain bound to the beads", "setting": "[2]", "result": 15, "unit": "%"}
    ]},
    {"substance": "SH2 domain of the tyrosine kinase Fyn (from UniProt P06241 143-248)", "values": [
      {"measurement": "percent of SH2 domain bound to the beads", "setting": "[1]", "result": 80, "unit": "%"},
      {"measurement": "percent of SH2 domain bound to the beads", "setting": "[2]", "result": 65, "unit": "%"}
    ]},
    {"substance": "FKpYEEI-FKBP52 complex (binary complex of FKBP52 and FKpYEEI) (from UniProt Q02790 1-459)", "values": [
      {"measurement": "fold enhancement of affinity against FKpYEEI alone", "setting": "[3]", "result": 3, "unit": "fold"},
      {"measurement": "fold enhancement of affinity against pYEEI", "setting": "[3]", "result": 4.4, "unit": "fold"},
      {"measurement": "fold enhancement of Kd against FKpYEEI alone", "setting": "[4]", "result": 4, "unit": "fold"},
      {"measurement": "IC50", "setting": "[5]", "result": 250, "unit": "nM"},
      {"measurement": "Kd", "setting": "[6]", "result": 130, "unit": "nM"}
    ]},
    {"substance": "SLFpYEEI-FKBP12 complex (binary complex of SLFpYEEI and FKBP12) (from UniProt P62942 1-108)", "values": [
      {"measurement": "fold reduction of affinity against SLFpYEEI alone", "setting": "[3]", "result": 6, "unit": "fold"},
      {"measurement": "IC50", "setting": "[7]", "result": 1500, "unit": "nM"},
      {"measurement": "Kd", "setting": "[8]", "result": 1500, "unit": "nM"}
    ]},
    {"substance": "SLFpYEEI (SLF coupled to the N-terminus of the pYEEI peptide)", "values": [
      {"measurement": "Kd", "setting": "[9]", "result": 183, "unit": "nM"},
      {"measurement": "Kd", "setting": "[10]", "result": 61, "unit": "nM"},
      {"measurement": "Kd", "setting": "[11]", "result": 5000, "unit": "nM"},
      {"measurement": "IC50", "setting": "[12]", "result": 250, "unit": "nM"}
    ]},
    {"substance": "N-terminal SH2 domain of PLC", "values": [
      {"measurement": "percent of SH2 domain bound to the beads", "setting": "[1]", "result": 40, "unit": "%"},
      {"measurement": "percent of SH2 domain bound to the beads", "setting": "[2]", "result": 25, "unit": "%"}
    ]},
    {"substance": "FKpYEEI (pYEEI peptide chemically linked to FK506)", "values": [
      {"measurement": "Kd", "setting": "[9]", "result": 520, "unit": "nM"},
      {"measurement": "Kd", "setting": "[10]", "result": 45, "unit": "nM"},
      {"measurement": "Kd", "setting": "[11]", "result": 150, "unit": "nM"},
      {"measurement": "IC50", "setting": "[13]", "result": 750, "unit": "nM"}
    ]},
    {"substance": "phosphotyrosine peptide NH2-pYEEI-COOH", "values": [
      {"measurement": "IC50", "setting": "[14]", "result": 1100, "unit": "nM"}
    ]}
  ]
}
